The values that follow come from article PMC4219717.

The target of one experiment is GST-AHSP^WT (human) (UniProt Q9NZD4).
Chain of UniProt Q9NZD4 (Q9NZD4 whole entry): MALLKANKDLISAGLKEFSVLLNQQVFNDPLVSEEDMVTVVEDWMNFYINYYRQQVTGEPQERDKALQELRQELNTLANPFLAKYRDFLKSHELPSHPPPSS

In the case of GST-α-Hb1-117 (domain or fragment), the CO recombination kinetics after flash photolysis of the GST-AHSP^WT/GST-α-Hb complex: fraction of the intermediate (I) phase in the experiment with GST-AHSP^WT (human) turned out to be 20 % I phase.

Regarding GST-α-Hb1-126 (domain or fragment), in the experiment with GST-AHSP^WT (human), the CO recombination kinetics after flash photolysis of the GST-AHSP^WT/GST-α-Hb complex: fraction of the intermediate (I) phase was 19 % I phase. As to GST-α-Hb1-134 (domain or fragment), in the experiment with GST-AHSP^WT (human), the CO recombination kinetics after flash photolysis of the GST-AHSP^WT/GST-α-Hb complex: fraction of the intermediate (I) phase stood at 10 % I phase. As to GST-α-Hb1-138 (domain or fragment), in the experiment with GST-AHSP^WT (human), the CO recombination kinetics after flash photolysis of the GST-AHSP^WT/GST-α-Hb complex: fraction of the rapid (R) phase worked out at 97 % R phase. As for GST-α-Hb^WT (natural protein), the CO recombination kinetics after flash photolysis of the GST-AHSP^WT/GST-α-Hb complex: fraction of the intermediate (I) phase in the experiment with GST-AHSP^WT (human) was found to be 100 % I phase. For native α-Hb (natural protein), the CO recombination kinetics after flash photolysis of the complex: fraction of the intermediate (I) phase in the experiment with GST-AHSP^WT (human) came to 100 % I phase. For the substance native β-Hb (natural protein), the CO recombination kinetics after addition of β-Hb and 1 mM IHP to the GST-AHSP^WT/GST-α-Hb complex: fraction of the rapid (R) phase in the experiment with GST-α-Hb1-117 (human) is 88 % R phase; with GST-α-Hb1-126 (human) it was 80 % R phase; in the experiment with GST-α-Hb1-134 (human), 84 % R phase; with GST-α-Hb1-138 (human), 95 % R phase. The CO recombination kinetics after addition of β-Hb and 1 mM IHP to the GST-AHSP^WT/GST-α-Hb^WT complex: fraction of the slow (T) phase with GST-α-Hb^WT (human) was found to be 32 % T phase.
